These results are taken from US20240199730A1 (AstraZeneca / MedImmune, published 2024).

B1: Fab 1 (Fab, V domains shown)
VH: QMQLVESGGGVVQPGRSLRLSCAASGFTFRTYGMHWVRQAPGKGLEWVAVIWYDGSNKHYADSVKGRFTITRDNSKNTLNLQMNSLRAEDTAVYYCARAPQWELVHEAFDIWGQGTMVTVSS
VL: SYVLTQPPSVSVAPGQTARITCGGNNLGSKSVHWYQQKPGQAPVLVVYDDSDRPSWIPERFSGSNSGNTATLTISRGEAGDEADYYCQVWDSSSDHVVFGGGTKLTVLG
notes: The claims call it an IgG1 Fab; It was injected as monomerized Fab1 in the Biacore assay; also called anti-TSLP Fab
B2: cyno TSLP (ligand, cynomolgus)
chain: YDFTNCDFQKIEADYLRTISKDLITYMSGTKSTDFNNTVSCSNRPHCLTEIQSLTFNPTPRCASLAKEMFARKTKATLALWCPGYSETQINATQAMKKRRKRKVTTNKCLEQVSQLLGLWRRFIRTLLKKQ
notes: Cyno TSLP as used in solution in the KinExA assay; also called Cynomolgus TSLP

For experiment [1], the target named is T1, N-terminally tagged biotinylated cyno TSLP (cynomolgus, UniProt A0A7N9CAT7 29-159, biotinylated (site not stated)).
T1 construct: Captured on a streptavidin C1 chip in the Biacore assay; also called recombinant mammalian cell-expressed cyno TSLP; not shown: N-terminal tag
T1 sequence: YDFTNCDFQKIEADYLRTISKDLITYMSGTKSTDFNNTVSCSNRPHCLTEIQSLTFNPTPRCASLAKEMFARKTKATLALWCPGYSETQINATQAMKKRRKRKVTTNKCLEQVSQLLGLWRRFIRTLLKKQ
Briefly: SPR, Biacore 8K; biotinylated TSLP on streptavidin C1 chip, Fab1 injected; 1:1 Langmuir model. (In SPR one partner is held on a chip, and binding of the other changes the refractive index at the surface.)

For experiment [2], the target named is B2. In words: KinExA, solution phase; global 1:1 fit to two datasets. An excerpt: (§1) The KinExA methodology has been reviewed (Darling and Brault, 2004).
(§2) The KinExA software was used to calculate the equilibrium dissociation constant (KD).

Experiment [3] concerns the target B1. Briefly: KinExA, cyno TSLP titrated into 1000 pM fixed Fab 1 (filled diamonds); free Fab 1 captured on hu TSLP-coated beads; the midpoint depends on the fixed Fab concentration.
From the text: as §1, §2
(In general: In KinExA the mixture passes briefly over coated beads that capture the unbound partner.)

For experiment [4], the target named is B1. In words: KinExA, cyno TSLP titrated into 40 pM fixed Fab 1 (open squares); free Fab 1 captured on hu TSLP-coated beads; the midpoint depends on the fixed Fab concentration.
From the text: as §1, §2

For orientation: Kd means the constant that tells how readily two partners part at equilibrium. A higher Kd goes with a looser complex. Consider B1, for which the Kd was 0.0884 nM in experiment [1] and 0.0136 nM in experiment [2].
For B2, the “IC50 (read off the curve)” value in experiment [3] is around 0.6 nM; in experiment [4], around 0.04 nM.
